The text below walks through data of patent US20030158387A1.

For assay [1], the target named is chemokine receptor 1 (CCR1) (UniProt P56482).
Assay [2] has the same target. Put plainly: competition radioligand binding on CCR1 (assay not given).
Assay [3] has the same target. Put plainly: competition radioligand binding, membranes of CHO-K1 cells expressing CCR1, tracer [125I]-MIP-1 alpha.
Assay [4] shares this target. Described as above. The source holds these as a separate data set.
Assay [5] shares this target. The source holds these as a separate data set.
The target is the same in assay [6]. This is another data set of the same source.
Assay [7] deals with chemokine receptor 5 (CCR5) (human), P51681. In words: competition radioligand binding, membranes of CHO-K1 cells expressing CCR5, tracer [125I]-MIP-1 beta; mean ± SEM. The settings on record: remark: other sources report otherwise.
Chain of chemokine receptor 5 (CCR5) (human), P51681 (P51681 whole entry): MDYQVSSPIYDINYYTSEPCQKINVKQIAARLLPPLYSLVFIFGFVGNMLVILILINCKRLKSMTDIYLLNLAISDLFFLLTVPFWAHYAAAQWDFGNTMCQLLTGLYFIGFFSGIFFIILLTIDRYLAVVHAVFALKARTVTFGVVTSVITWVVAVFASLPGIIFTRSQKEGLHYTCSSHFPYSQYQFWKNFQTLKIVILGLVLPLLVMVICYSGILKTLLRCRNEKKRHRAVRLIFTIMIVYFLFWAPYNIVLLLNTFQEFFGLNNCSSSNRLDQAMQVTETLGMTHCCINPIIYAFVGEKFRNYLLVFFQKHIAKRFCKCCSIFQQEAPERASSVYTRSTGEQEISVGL
For assay [8] the target is unchanged. Put plainly: competition radioligand binding, membranes of CHO-K1 cells expressing CCR5, tracer [125I]-MIP-1 beta. The settings on record: remark: other sources report otherwise.
In assay [9] the target is chemokine receptor 1 (CCR1) (UniProt P56482). In words: competition with 125I-RANTES, membranes of CHO-K1 cells expressing CCR1, filtration, one site competition model; 125I-Rantes tracer, CCR1 membranes.
Assay [10] shares this target. In words: cell-based or functional assay.
Assay [11] has the same target. Put plainly: competition with 125I-RANTES for binding to CCR1.

Read-outs that look alike come from different tables or passages of the source. *: point of attachment. Nonanoyl = CCCCCCCCC(=O)*

B1: HCC-1, residues 6-74 (ligand)
chain: SSRGPYHPSECCFTYTTYKIPRQRIMDYYETNSQCSKPGIVFITKRGHSVCTNPSDKWVQDYIKDMKEN
B1 returned an EC50 (aequorin luminescence, CHO-K1 cells expressing CCR1) in assay [1] of 262 nM.

B2: HCC-1[11-74] (ligand)
chain: YHPSECCFTYTTYKIPRQRIMDYYETNSQCSKPGIVFITKRGHSVCTNPSDKWVQDYIKDMKEN
With B2, the EC50 (aequorin luminescence, CHO-K1 cells expressing CCR1) in [1] was 40.3 nM.

B3: full size human chemokine HCC-1 (residues 1-74) (ligand)
chain: TKTESSSRGPYHPSECCFTYTTYKIPRQRIMDYYETNSQCSKPGIVFITKRGHSVCTNPSDKWVQDYIKDMKEN
With B3, the Ki in [2] is 100 nM.

B4: HCC-1[12-74] (ligand)
chemokine chain: HPSECCFTYTTYKIPRQRIMDYYETNSQCSKPGIVFITKRGHSVCTNPSDKWVQDYIKDMKEN
In the case of B4, the IC50 (read off the curve) in assay [3] came to 40 nM.

B5: HCC-1[10-74] (ligand)
chain: PYHPSECCFTYTTYKIPRQRIMDYYETNSQCSKPGIVFITKRGHSVCTNPSDKWVQDYIKDMKEN
On to B5, for which the IC50 (read off the curve) in assay [4] was found to be 0.1 nM; in assay [3], 0.2 nM. In [5], this molecule gave an EC50 (read off the curve) of 3 nM. This molecule also yielded an EC50 (aequorin luminescence, CHO-K1 cells expressing CCR1) in [1] of 4.32 nM.

B6: HCC-1[7-74] (ligand)
chain: SRGPYHPSECCFTYTTYKIPRQRIMDYYETNSQCSKPGIVFITKRGHSVCTNPSDKWVQDYIKDMKEN
Molecule B6 had an EC50 (aequorin luminescence, CHO-K1 cells expressing CCR1) in assay [1] of 218 nM.

B7: NNY-HCC-1[10-74] (nonanoyl-HCC-1[10-74]) (ligand)
chain: Nonanoyl-PYHPSECCFTYTTYKIPRQRIMDYYETNSQCSKPGIVFITKRGHSVCTNPSDKWVQDYIKDMKEN
modifications: ends and bridges not checked
B7: the IC50 (read off the curve) in [4] came out at 0.1 nM. The EC50 (read off the curve) in [6] amounted to 4 nM. Further, the EC50 (aequorin luminescence, CHO-K1 cells expressing CCR1) in assay [1] was determined as 5.9 nM.

B8: RANTES, P13501 24-91 (ligand, UniProt P13501 24-91, looked up)
chain: SPYSSDTTPCCFAYIARPLPRAHIKEYFYTSGKCSNPAVVFVTRKNRQVCANPEKKWVREYINSLEMS
modifications: ends and bridges not checked; also: 125I-labelled where used as tracer, unlabelled in functional assays
On to B8, for which the IC50 in assay [7] came out at 0.116 nM. For the same molecule, the IC50 (read off the curve) in assay [8] came out at 0.1 nM.

B9: HCC-1[8-74] (ligand)
chain: RGPYHPSECCFTYTTYKIPRQRIMDYYETNSQCSKPGIVFITKRGHSVCTNPSDKWVQDYIKDMKEN
B9: the EC50 (aequorin luminescence, CHO-K1 cells expressing CCR1) in assay [1] came to 35.2 nM.

B10: processed human chemokine PHC-1 (HCC-1[9-74]) (ligand)
chain: GPYHPSECCFTYTTYKIPRQRIMDYYETNSQCSKPGIVFITKRGHSVCTNPSDKWVQDYIKDMKEN
As for B10, the IC50 in assay [9] was determined as 2.3 nM. For the same molecule, the EC50 of receptor activation (aequorin assay) in [10] is 2.8 nM. Further, the EC50 (read off the curve) in assay [5] amounted to 2 nM. Moreover, in assay [11], the Ki came out at 0.023 nM. Moreover, the EC50 (aequorin luminescence, CHO-K1 cells expressing CCR1) in assay [1] worked out at 2.62 nM. This molecule showed an IC50 (read off the curve) in assay [3] of 0.2 nM.
